{
  "source": "the DeepSol protein solubility set",
  "data": [
    {"experiment": "soluble on expression in E. coli; label from the status in PepcDB or PDB records", "values": [
      {"sequence": "MGATGVASQRKTIEESIERNKEKYIETSHDIHANPEIGNQEFYASRTLSLLLGSAGFQLQHNIAGHETGFIARKSSGKQGPAIAFLAEYDALPGLGHACGHNLIGTISVAAAIALSETLEEIGGEVVVFGTPAEEGGPNGSAKSSYVKAGLFKNIDAALMIHPSGKTATTSPSLAVDPLDFHFYGKTAHAAASPEEGINALDAVIQLYNSINALRQQLPSDVKIHGVITEGGKAPNIIPDYAAARFFIRAATRKRCAEVTEKVKNIAQGAALATDTKVKIHQFQNEIDELLVTKTYNDVVAEELELLGEDVNRKERFGIGSTDAGNVSQVVPTIHPYIKIGPDDLIAHTNEFREAARSELGDKALITSAKALANTAYRLITEEGLLEKVKEEFREAQRNQG", "soluble on expression in E. coli": "not soluble"},
      {"sequence": "MGSDKIHHHHHHMNKEIPKFLENTQIEKFICNELDYKKEILRELKELLENFNTINVKNSINSKYIALLMLSIFNAFHFKKELNKNLVNSLDAIIFAIKSIGTDESFIVLFKAFLHANVEVSSNEDAPGEIIIKLLGNIKSPIEFNIAAKNQNKLKKITAKHAGFKKALTSNYMPKDYKNSVYEFIKILIPIGRIVKIIDKKQIEIKGTRTKKFSTADHFF", "soluble on expression in E. coli": "not soluble"},
      {"sequence": "MGHHHHHHSHMSAVGTATPYLHHPGDSHSGRVSFLGAQLPPEVAAMARLLGDLDRSTFRKLLKFVVSSLQGEDCRDCCSVLGSAPTCRRAAGCLLAGMHTLLQQALRLPPTSLKPDTFRDPAPGALHPPRPGRGLGQRGIWEPAALLDSVAQQQGAWLPHVADFRWRVDVAISTSALARSLQPSVLMQLKLSDGSAYRFEVPTAKFQELRYSVALVLKEMADLEKRCERRLQD", "soluble on expression in E. coli": "soluble"},
      {"sequence": "MKMQKELSVYLKQILQAAQYIRLYTDKMDYGQFSADTKTVQAVVFNLFLIGENATHILKSYPEFAEETKYLNWIGMRGYCAIGLPMATLK", "soluble on expression in E. coli": "not soluble"},
      {"sequence": "MDFKYDVIVIGAGHAGCEAAAAAANLGSKTCLITMDMNKIGQMSCNPAVGGIAKGQIVREIDALGGQMGLVTDETAIQFRILNRSKGPAMWSPRAQCDRAKFIWSWREKLENTPNLHIWQDTVCELLVENGEVVGLVTLWGVTFKAKCIVLTAGTFLNGLMHVGRHQLPGGRMAEPASYQLTESIARHGIAYGRMKTGTPVRIDARSIHFDLMDTQDGECDFHKFSFMNTSTRHLKQLQCWTCYTNEEVHRILREGLPDSPLFNGQIQSIGPRYCPSIETKIVTFPDKEQHQLFLEPEGETTQELYLNGFSSSLPMDIQIAALKKVPAFKDIVIYRPGYAIEYDYFDPTQLKHSLESKIIKNLFFAGQVNGTTGYEEAGGQGLIAGINAHINCHGGEAFTLARDEAYIGVLIDDLVTKGVDEPYRMFTSRAEYRILLRMDDADMRLTERAYHLGLAREDRYQLMKTKKEALEQIVNFAKNYSMKPALINDALEKLGTTPLRQGCKLIEILNRPQITIENIAEHVPAFQRELEKATAADSDRKEEILEAAEILIKYQGYIDRERMIAEKLARLESIKIKGKFDYASIQSLSTEARQKLVKIDPETIAQASRIPGVSPSDINVLLVLSGR", "soluble on expression in E. coli": "not soluble"},
      {"sequence": "MSQDFVTLVSKDDKEYEISRSAAMISPTLKAMIEGPFRESKGRIELKQFDSHILEKAVEYLNYNLKYSGVSEDDDEIPEFEIPTEMSLELLLAADYLSI", "soluble on expression in E. coli": "soluble"},
      {"sequence": "MKQQAIDEQLRNAIEYTPEMFTQVPMLYINIEINNYPVKAFVDTGAQTTIMSTRLAKKTGLSRMIDKRFIGEARGVGTGKIIGRIHQAQVKIETQYIPCSFTVLDTDIDVLIGLDMLKRHLACVDLKENVLRIAEVETSFLSEAEIPK", "soluble on expression in E. coli": "soluble"},
      {"sequence": "MGSDKIHHHHHHMYEEIIEKLDLQMNRMISFLSKKMRLFFQDLEKRFTNRAILLYGPRGAGKTTFLLSMARKHGFLYVSGDEILLLDVPLHDLFQEIMKNYPGIIIDEVHLLKNWSTILKVLYDSFPDKVIWTSDSSSVLLRKGISDLSRRFVLIRMPLMSFREFIHFETGKTLRKLSSPFEVSIDYAAEALKEVDLMSLFRKYRETGTRPFYVEGNFREKLMNILQKAIYYDVPHFLGTVTENHLGVMKAIVGHLLHSKIPTINVESMCREWGVGKQKFYQLLQTMEEIELVNIVRKKRVEKPFSKGEKIFLSDPAMYYAFEGEIGNFREAFVVFALKEIGKIYAVKNEEEGDYVFEGIKIEVGGKSKKKKSSDFVIRDDVDLPVRNVIPMWMLGMLW", "soluble on expression in E. coli": "not soluble"},
      {"sequence": "SRDGSVAPKERINIRYVPATGDTQEDVELPLSMMVVGDFTARADETPIEERTPINIDKDNFNDVLEGMSPNVKVNVENRLSDEEGAQIGVDLTFQNMKDFSPEAIAKSVPELNSLLELREALVALKGPLGNVPAFRKKIASVLQDEEARKKLLDELSIG", "soluble on expression in E. coli": "not soluble"},
      {"sequence": "MSTKPAAAKTKPSCSEGGDLRVETENGETFITATQRADGTWRKARRVKGGYIPQDEQPKYQNKMQLEATNGRSSVPAGVNPRAMASGSSRKPVSAIKANVCITPQDHFQKKIDLTKKKIEDIEGMESRIASGELVPQPNQVKKIARKQEYLDEIEKLTLEMKKL", "soluble on expression in E. coli": "not soluble"},
      {"sequence": "MKTLVELPLLPLRDVVVYPHMVIPLFVGREKSIEALEAAMTGDKQILLLAQKNPADDDPGEDGLYRMGTVATVLQLLKLPDGTVKVLVEGEQRGQVERFIEEEGHIRAAVQAIDDANVGEREAEVFTRSLLSQFEQYVQLGKKVPAEVLSSLNSIDEPSRLVDTMAAHMALKIEQKQDILEITDLSSRVEHVLALLDAEIDLLQVEKRIRGRVKKQMERSQREYYLNEQMKAIQKELGDIDEGHNEVEELKKRIDAAGLTKEAHTKATAELNKLKQMSPMSAEATVVRSYIDWLLNVPWKAESKVRHDLAKAEDILDADHYGLEEVKERILEYLAVQKRVKKLKGPVLCLVGPPGVGKTSLAESIARATNRKFVRMALGGVRDEAEIRGHRRTYIGSMPGRLIQKMTKVGVRNPLFLLDEIDKMGSDMRGDPASALLEVLDPEQNHNFNDHYLEVDYDLSDVMFLCTANSMNIPAPLLDRMEVIRLPGYTEDEKVNIAAKYLIPKQVQANGLKKGELTFEEGALRDIIRYYTREAGVRSLERQIAKVCRKAVKEHAKLKRIQAVVSSETLENYLGVRKFRYGLAEQQDQIGQVTGLAWTQVGGELLTIEAAVVPGKGQLTKTGSLGDVMAESITAALTVVRSRAQSLGIAADFHEKRDIHIHVPEGATPKDGPSAGIGMCTALVSAITQIPVRADVAMTGEITLRGQVLAIGGLKEKLLAAHRGGIKTVIIPEENVRDLKEIPDNIKSDLVIKPVKWIDEVLQIALQYAPEPLPDAAPEMVAKDEKREPDSKERIST", "soluble on expression in E. coli": "not soluble"},
      {"sequence": "MSLTAPLEWKQANFLSISDSHGWLLGHQHSTWPEPNYSGNYGSFASFVIHMRKIADEKGVDLLLIDAGDHHDGSGLVSSSPDSASLAEDIFSMISYDVITIGNHELYHYADALDIYENHERWGGRYVTSNVNITVKREGEWQSVPIGQTHLKFTTKQGYNVTAFGVIFDFKAHDKGITVQKPSKLVHEPWFQEAIRDAPDYFILAGHMPVRGETAEFAPVFDAIRDIHPQVPIFLFGGHTHVRDCVQYDERSIGVVPGKYLETVAFTSSSLPSSSGDDRPLDVARSYQWHTNQTSYTFDTEGHHHHHH", "soluble on expression in E. coli": "soluble"},
      {"sequence": "MSLTQVPAGQFTATKNLRPAAKPGKDVVLRVYSDFQCPYCQKLELETMPALLRALPDDVRVEFHQFPLEQIHPLARPAAEASECAAQQGRFWDYKDALFRDRSWLQNNPNETFLRLAGDLKLDPGKFKDCLALRGGKAGVDAGLAEAQQLGLNATPTVFVDGYRVGNPFDTAAVLQLIDVARATREGHHHHHH", "soluble on expression in E. coli": "soluble"},
      {"sequence": "MGSDKIHHHHHHMTSFNSNELQKLYIAFFGRPCDPAGMNYWLSKSEDKANLIDVAKAFSSQEEYKKSLTSVNSIEFQINQIYLNLFARKADFDSLNTWSLKCKRGELKIYELASMLTIEQSNIEEKIDNISLKDVEVLEKKVQAAQLFTDQISKDICWINAYKPDSIDPWILGKALQVGINYLNKVDSSYHLDKYAVTEILHKMSFEKINTSTKAIIKIRNLSLTIPISFKHDQKLSNLLTKGVLNSIIGGQLVKNKTTTKIEALRNINLTIMNGERVALIGHNGSGKTSFLKVISGIYLPTEGDLDVEVDVYPMLQKSFLTSTDLTGVDAAKAHYLLVNKSLNGFDQFLQDIIEFSGLGEFISLPIKTYSEGMSARLIFSILTSIPHDCLAIDEGFGTGDSDFFERAEKRMKSFMNSSGTLILASHSEHLLKQFCTRGIVFNHGQVVYDGSLDASLNYYHTHDYIHSNDN", "soluble on expression in E. coli": "not soluble"},
      {"sequence": "MYLQPKKVRWRKQRRGTLKGKAFRGNKLAFGEYGIQALDRAWITQQQIEAVRVALVRSLKKGAKVWIRIFPDKPYTKKPNEVRMGGGKGDPEGFVAVVKPGRILFEFTGVPEEVAQEAFTIAASKLPIPVRLVKYGEFTFKYLEHHHHHH", "soluble on expression in E. coli": "not soluble"},
      {"sequence": "MAEEGYKVVLNVYDLSNGLARQLSTSFLGKPIEAIWHTGVVVYGNEYFFGGGIQSLAAGRTPYGRPVRVVEMGETHIPREVFEDYLRDISPRYTAETYRLLSHNCNNFSNEVAQFLVGAGIPDYILNLPAEVMSSPMGPLIMPMIQNLESTLRTNAAPQATQFVPSSVPPPPPPQNKPGEGSSSSKQEDKAAKAKQGSAADPLGGARGKVQEEVMREFAAIMASGTLRASEAAALAMRRVMERHGNATMQQS", "soluble on expression in E. coli": "soluble"},
      {"sequence": "MGSDKIHHHHHHMTTIHVSDLSKTYGTDTNVPVLSGVSFDLTSPAIHGLIGANGVGKTTLLRILAGQSRCEGVVEVDGQPAFDNPEVMDRCVLMGIDVPLPSTWRGTKLLSFAQHRYPRWDEARCAQLIDAFQVPVDKPYQSLSRGQKSALGIIIAFSATCDITLLDEPYLGLDVANRDLFYRELRAEQARCPRLIILSTHHINEASHVFDSVMVLKKDGVALQGDVESITGRVVELVGPKATIEGFVSHPARRIGEVHTAGGVAKVLAEARAEEWDQLSALGLRTHEVSLERAVMFLECD", "soluble on expression in E. coli": "not soluble"},
      {"sequence": "MSGSSHYPVANWNLDGIVSGLRGARQEWRGPRGRLREESESGVREFPSQESLRDIMRQLFGALFPMRLGPIDLREEVEDFYVGHTIGAALDALLHQVCLELQHLGRDDPQPYGQVLERAVDIVRRFGAELPAVRKALDLDVTAAYQGDPAARSVDEVLLCYPGVTAMIHHRLANVLYRLGAPMLARIVAEIAHSDTGIDIHPGATIGRSFFIDHGTGVVIGETAIIGERVRLYQMVTLGAKRFPPGENGELKKGLPRHPIIEDDVVIYAGATILGRITIGQGSTIGGNVWLTHSVPPNSTVTQAGAINDMPDCGLGGLEHHHHHH", "soluble on expression in E. coli": "not soluble"},
      {"sequence": "MSDARLAELAAAVGLQLDWQDANGRPQRVDPEVQRGLLEALGYPAQSPQQIEQSLAALARLREDSANLGLLVGECGQPLEQALGPAGTPGELVYEDGTRIALRLDAEGRLPAQARSGYAQLSLEQREWAVAMAPPSCPSLASLAPGRSRRWGLAAQVYALRRPGDGGLGDSAALEDLLRSAARHGADALAISPLHALAEANGHAYSPYSPSSRLFFNVLHAAPATILGAAAVEQAIRRAGLAAEMARLESLELIDWTAAADLRMRLLRQLHRDFTERASPLRHDLAEFRREAGEALLHHCRFETLQAHLGAGPDWRRWPEPLRRPGEPAVAAFCADHAEEVDFRAFGQWLTQRCLQHAQRQAREAGMAIGLVADLAVGADGGGSQAWSRQEELLAEVNVGAPPDILNQSGQDWGVSAFNPEGLRRHGYRAFREMLRANLAWPGGLRIDHVMGLQRLWLIPRGQPPHAGAYLRYPQRELLRLLALEASRASALVIGEDLGTVPEGLREELARRQVLGTRVLLFERRGERFVPPAQWPADAMATTSTHDLPSLSGWWRGRDIHWRGRAGHRSAEECAADLELRAEERRALAASLEPPVDPDPAAEVPLDACIGYVGATPAPLVLLPLEDALGSLEQPNLPGPGDAHPNWRRRWPENAAQMLGTPQVDRRLRLLERSRRDAEEA", "soluble on expression in E. coli": "not soluble"}
    ]}
  ]
}
